Source: the DeepSol protein solubility set

assay: soluble on expression in E. coli; label from the status in PepcDB or PDB records

**Q.** For “MGSDKIHHHHHHMPTVLALETSCDESAAAVLRLNNGCLQVIASRIASQVEKHAQWGGVVPEVASRLHVEALPHLVEEVLQEAGQSMARFDAVAATVTPGLAGALMVGSVTGRSLAALHALPFFGIHHLEGHLASVRLAEHPPRPPYLVLLVSGGHTELIRVGAESEMVRLGRSHDDAAGEAFDKVGRLLGLAYPGGPAIQALAATGDSGRFSLPKGRVSKPGGGFHPYDFSFSGLKTAMLRLVQALSEADEDLPRADLAASFEQVVADVLVERSLLCANDQGLKTVVMVGGVAANRRLRELMSKRGQEQGIEVHTAPLRYCTDNAAMIGAAALQRLVSGVNGSSLELGVAARWPLDKTEVLYHSPPPF”, which “soluble on expression in E. coli” value is on record?
**A.** not soluble

**Q.** Which “soluble on expression in E. coli” value does the source give for “MFQQLSARLQEAIGRLRGRGRITEEDLKATLREIRRALMDADVNLEVTRDFVERVREEALGKQVLESLTPAEVILATVYEALKEALGGEARLPVLKDRNLWFLVGLQGSGKTTTAAKLALYYKGKGRRPLLVAADTQRPAAREQLRLLGEKVGVPVLEVMDGESPESIRRRVEEKARLEARDLILVDTAGRLQIDEPLMGELARLKEVLGPDEVLLVLDAMTGQEALSVARAFDEKVGVTGLVLTKLDGDARGGAALSARHVTGKPIYFAGVSEKPEGLEPFYPERLAGRILGMGDVASLAEKVRAAGLEAEAPKSAKELSLEDFLKQMQNLKRLGPFSEILGLLPGVPQGLKVDEKAIKRLEAIVLSMTPEERKDPRILNGSRRKRIAKGSGTSVQEVNRFIKAFEEMKALMKSLEKKKGRGLM” here?
**A.** soluble

**Q.** With “MTVDTEKQQVVRPRNEIAAADCWDVSPLYPNREDWKADLDSFGLKTDGSPTWPELQATQYQLEDSESLLSLLTKLFSVERKLDKLYVYAHLVHDQDITNQEGVADLKSITHLHILFSEEISWIQPALIGLSEPIIAQHLSAPCLAPYRFYLEKIFRLSMHTGTPGEEKILASAFAPFEVASKAFSSLSDSEIPFGQAMDSEGNSHPLSHALASLYMQSTDRELRKTAYLAQCERYYNYRHTFANLLNGKIQAHLFYAKNKKYGSCLESALYHNNIPTTVYTNLMDIVKKNASLITKYYSLKQKALNIKDFHFYDVYAPLSQSEEKKYSYEEAVDLIYDSLSPLGTEYVDILKQGLTTEGWVDKYENLNKRSGAYSSGCYDSYPYILLNYTGTLYDVSVIAHEGGHSMHSYFSRKNQSFHDAQYPIFLAEIASTLNEMLLMDSMLKKSNSKEEKITILTRCLDTIFSTLFRQVLFASFEYEVHSAAEQGIPLTEEYLSSTYKNLQNDFYGGIITFDTLSNIEWARIPHFYYNFYVYQYATGIIAALCFAERILNKEDNALESYMNFLKSGGSDFPLEILKKSGLDMATSEPIYKAFSFIERKIQELSSLI” as the sequence, how does the “soluble on expression in E. coli” value read?
**A.** soluble

**Q.** For “MGSDKIHHHHHHMGRLFYKPENAWVGDLIPYYENGTYYGFYLHDPRIRDKEYAEDTTWHLIETKDFVNLDYKGESIARGGIHDANKNAYTGSVIKCEKDGLYHVFYTAYNEDFKLRGKTIQSVMQATGKNLENLETVKDFLFVSDGKQYEEFDWRDPFVFWNDEDQCYYMLLASRVTNRGDLRGGCIALCKSEDLINWTYEKPFYDPKMYITMECPELFKMGEYWYLVFSTFSDQFTTHYRISKNWNGPWEIPDDDVFDTRADYAIKTASDGKRRFAFGWIASKYGNTDFGPWEWGGTMNFHEIIQNSKNGELRIKAIPEVLDYFSKEIELKKETLYNCKMVQAQDGVSVESDTLGALLYPLEGDTFALDMVIKPERYHEFGIALHVDKELETGYFLRMNPKNQLVAWDMWPRGEQGRYQWQIKGDVPYQIETARKLPKAEEYRVHIIKEKDICVVYINDEIVLSTRMYNHKDGYAGIYVVQGDVKLIQYKEKRSE”, which “soluble on expression in E. coli” value is on record?
**A.** not soluble

**Q.** With “MGSSHHHHHHSSGLEVLFQGPHMSYQVLARKWRPQTFADVVGQEHVLTALANGLSLGRIHHAYLFSGTRGVGKTSIARLLAKGLNCETGITATPCGVCDNCREIEQGRFVDLIEIDAASRTKVEDTRDLLDNVQYAPARGRFKVYLIDEVHMLSRHSFNALLKTLEEPPEHVKFLLATTDPQKLPVTILSRCLQFHLKALDVEQIRHQLEHILNEEHIAHEPRALQLLARAAEGSLRDALSLTDQAIASGDGQVSTQAVSAMLGTLDDDQALSLVEAMVEANGERVMALINEAAARGIEWEALLVEMLGLLHRIAMVQLSPAALGNDMAAIELRMRELARTIPPTDIQLYYQTLLIGRKELPYAPDRRMGVEMTLLRALAFHPRMPLPEPEVPRQ” as the sequence, how does the “soluble on expression in E. coli” value read?
**A.** soluble

**Q.** For “MGSDKIHHHHHHMIQLHVYEEIVNFKEEVTPFLEKNEQENNLILGVLQMVHQPIFMGIAKQGEEIAVVFLQTEEKKQIIVATSEISGVAIKELAKELTKIYPDIPGLIGDKKVVQHLAEEIAVLENKKTNVVMEQGVYELKEVKKKPSEDGFFREVSSDELTLIEEWIYQFCEDVNLPTTKEEAKQTAHTLITNHRLFGLEVDGKLVSVAAKTRPTKNNITVNFVYTPKEARKKGYASNCVAALSQRMLDEGYKTTTLYTDLANPTSNKIYQEIGYEQIAESVLIFLEK”, which “soluble on expression in E. coli” value is on record?
**A.** not soluble

**Q.** Which “soluble on expression in E. coli” value does the source give for “MGSDKIHHHHHHVTPLPIVDPGPPVLYDVEHVTSYRYALPVTVSHQCAHLKPRSFATQQVLSTQLGATPLPEIRSERIDYFGNTVTSFSLSEPHESLTVVAQSQVRILPPTLPAAADTPRWEEVAERLRLGFGADTLDACQMLYPSGHVKTLPEVRAYALPSFPPDRPILEAAIDLTGRIHADFTYDPTATTVATPLAEVLAKRRGVCQDFAHLQIACLRSMGLAARYVSGYVLTCSTESGERLEGGDASHAWVSLYVPCAAAPNGGWIDLDPTNDKLITREHVTVAWGRDFEDVSPIKGVMLGGGAQTVSVAVTLRPRTNGPRARTESPA” here?
**A.** not soluble

**Q.** For “MSLSQLVLILGDQLSPSIAALDGVDKKQDTIVLCEVMAEASYVGHHKKKIAFIFSAMRHFAEELRGEGYRVRYTRIDDADNAGSFTGEVKRAIDDLTPSRICVTEPGEWRVRSEMDGFAGAFGIQVDIRSDRRFLSSHGEFRNWAAGRKSLTMEYFYREMRRKTGLLMNGEQPVGGRWNFDAENRQPARPDLLRPKHPVFAPDKITKEVIDTVERLFPDNFGKLENFGFAEGHHHHHH”, which “soluble on expression in E. coli” value is on record?
**A.** not soluble

**Q.** For “MLNEQIFSNARVVTAEQVFIGTVVVRDGLIAEVQTGRSQLSQAQDLEGDFLLPGLVELHTDNLEKHLSPRPGVDWPSMSAVISHDAQIVAAGITTVFDALSIGDINPKGKRMQQLPAMLQAIADANEAGLTRADHLLHLRCEVSHPDTLNVFRDLVGQPLVQLVSVMEHAPGQRQFALESKYREYYMGKYHMSHEEMDHFIVEQVANSTEYADRYRRAIVELCLARGLSIASHDDATMAHVEESAGFGMNIAEFPTTLEAAQGCRQLGMSVLMGAPNIVRGGSHSGNVAAASLARHGLLDILSSDYYPASLLQAAFMLAEQDNDCELPHAINMVSRTPAIAAGLADRGEIRVGLRADLIQARNHAGLPVIDKVWRQGKRVF”, which “soluble on expression in E. coli” value is on record?
**A.** not soluble

**Q.** Which “soluble on expression in E. coli” value does the source give for “MLIPARMSEAEEQRWVTVMLDKLAAQESKRRLGDAELAERAERLSLQYFDGRARPTAVRWVTNQNTRWGSCTPSEGSIRLSHRLQGMPEYVVDYVLLHELAHLLVPGHGPRFWRLLEAYPRTERARGYLEGVVAADRLPHQPAPGAELEHHHHHH” here?
**A.** not soluble

**Q.** For “MGSDKIHHHHHHMDLEIATVKAILTEHDLLKEIKSTKTVANTGISYDSRTVKPGYMFFCKGNFKPEYLSVARQNGATTYVSENEYPEGTGMTAIIVTNVTRAMAVLSATYYNFPQNDLFIIGITGTKGKTSSAYFAHSILNQKYPNQVALFSTIDRIVGPKPEDQFKSDLTTPESMNLFHDMRVAVDNGMKYLVMEVSSQAYLRDRVYGLKFDCGIFLNITPDHIGRNEHKDFEDYLHCKLQLMVNSKRCIIDADTDRFDDVFGAAKATTDPEQIYLFSADVENGGVDFLIQDEEDDLTSNRFTLVESSSKAEAFHVAGDYDLNVAGDYNQSNATAAIIAAALADVTYQDAVLPLKSIVIPGRMEHLNVPGHGVVFVDYAHNYASLHALLKFLKHQYHDGKVIVVVGSPGDKGISRRAGFGQALSEQADIAYLTTDDPAFEDPEQIIQQIMDNIKPGTVEVRQVLDRHDAIEQAIMNSSEKDVVVLAGKGEDPYQKVGGVDTPWPTDMGVAEEVKRGLS”, which “soluble on expression in E. coli” value is on record?
**A.** not soluble

**Q.** For “MGSDKIHHHHHHMIMIRQLTPADFDAVITLGEIVHGSGYMDIAELTAIYHKGIKNGINANFVALENEQLIGFRLTYAAGQWPQDQWCTVDKWGVKFEDVCYFKSNTIAESGRGQGLGGKLLAASKAAVIAQGAKAGVSHLWQQSPNNAAVRYFTKAGGKLIKQHPQRWHQRYMGDDYICVLCGEDCHCVACEMLLLF”, which “soluble on expression in E. coli” value is on record?
**A.** not soluble

**Q.** For “METEICEQLGDLHLDKEAILLRAEQIEQDIKARKYSVIPPLSDEEQNLLDAEIAKRAAPPPGVPDAADFPLHDIVKELGLDKPVDGTDPEFYEELKAKDANTVYKNMKDVPDSIAAKYLPDLARRFVEFERRVKRVERMLWALPREDRSLEEDRFEILTELLDKSCQGLEIWEEHCERKIPLGHRCVLEGELIHLITSKFDLIDKICGEFDKLKNKRSEVNDERDMLRYEIRHCDMIFTEIHEKFLKSYLEMDW”, which “soluble on expression in E. coli” value is on record?
**A.** not soluble

**Q.** With “MNRILLYVHFNKYNKISAHVYYQLEQMRSLFSKIVFISNSKVSHEDLKRLKNHCLIDEFLQRKNKGFDFSAWHDGLITMGFDKLEEFDSLTIMNDTCFGPIWEMAPYFENFEEKKAVDFWGITNNRGTKAFKEHVQSYFMTFKNQVIQNKVFQQFWQSIIEYENVQEVIQHYETQLTSILLNEGFSYQTVFDTRKAESSFMPHPDFSYYNPTAILKHHVPFIKVKAIDANQHIAPYLLNLIRETTNYPIDLIVSHMSQISLPDAKYLLSQKYLNCQRLAKQTCQKVAVHLHVFYVDLLDEFLTAFEDWNFHYDLFITTDSDIKRKEIKEILQRKGKTADIRVTGNRGRDIYPMLLLKDKLSQYDYIGHFHTKKSKEADFWAGESWRKELIDMLVKPADSILSAFETDDIGIIIADIPSFFRFNKIVNAWNEHLIAQEMMSLWRKMDVKKQIDFQAMDTFVMSYGTFVWFKYDALKSLFDLELTQNDIPSEPLPQNSILHAIERLLVYIAWGNSYDFRIVKNPYELTPFIDNKLLNLREDEGAHTYVNFNQMGGIKGALKYIIVGPAKAMKYIFLRLMEKLKLEHHHHHH” as the sequence, how does the “soluble on expression in E. coli” value read?
**A.** soluble

**Q.** For “MGSDKIHHHHHHMHLGKINEDVFNKVIYPHLGERRKEVVVGPQHGVDTGAIDLQDGRVLVVKTDPVFIVPQFGFKKAAWFAVHILASDVMTSGIPPEYAVIDLNLPPRIKDEEFEEMWIGIHEALKEIGVMVVGGHTGVYEGTDYPMVGGFTMFGIGEKERLGMPSKVKVGDSVIMTKGPAIEATGLLTNLYPEYFKQRLSNEIFNEAYNMYWKMSCWKDGLIASRIGIHMMHDATEGGVFGALTEVARASSKGMRIYEERFFINRAVREVTKLVNIDPWISISEGTMIIVTDKGEEVRNTLIREGIEAEIIGEIVDQSGEVTMVKKDGSRVKIEHPLEDPFWRAFFDLASKT”, which “soluble on expression in E. coli” value is on record?
**A.** not soluble

**Q.** With “PVDINAATHTIVRGDTVYNISKRYHISQDDFRAWNGMTDNTLSIGQIVKVKPAGYAAPKAAAVKSRPAVPAAAQPPVQSAPVDINAATHTIVRGDTVYNISKRYHISQDDFRAWNGMTDNMLSIGQIVKVKPAGYAAPKTAAVESRPAVPAAVQTPVKPAAQPPVQSAPQPAAPAAENKAVPAPAPQSPAASPSGTRSVGGIVWQRPTQGKVVADF” as the sequence, how does the “soluble on expression in E. coli” value read?
**A.** not soluble

**Q.** Which “soluble on expression in E. coli” value does the source give for “MKSNKNEFLKLLTAYQGIIHKVNRIYFRSEADREDNFQETVYQLWRSFPALQNKEKPASWIYTVAINTSISKVRKDSRIEFRDSPPDGEPVDPWEQQEQDENWQRLVNALQKLNEIDKSIMLLYMEDYSYEEIAGIVGISSSAVGVKIHRLKGQLQKQFKK” here?
**A.** not soluble

**Q.** With “MGSDKIHHHHHHMRIIETIEEMKKFSEEMREKKKTIGFVPTMGYLHEGHLSLVRRARAENDVVVVSIFVNPTQFGPNEDYERYPRDFERDRKLLEKENVDCIFHPSVEEMYPPDFSTYVEETKLSKHLCGRSRPGHFRGVCTVVTKLFNIVKPHRAYFGQKDAQQFRVLRRMVRDLNMDVEMIECPIVREPDGLAMSSRNVYLSPEERQQALSLYQSLKIAENLYLNGERDAEKIKEEMIKHLSRFDKVKIDYVEIVDEETLEPVEKIDRKVIVAVAAWVGNARLIDNTILG” as the sequence, how does the “soluble on expression in E. coli” value read?
**A.** not soluble
